What all share (experiment): purified protein
What all share (assay type): biochemical, Saccharomyces cerevisiae
Holding throughout (settings): standardised reaction buffer, 30 °C

Substrate in series [1]: O=C(O)[C@@H](CO)OP(=O)(O)O
Substrate in series [2]: O=C(O)[C@H](O)COP(=O)(O)O
Substrate in series [3]: O=C[C@H](O)COP(=O)(O)O
Substrate in series [4]: CC(=O)C(=O)O
Substrate in series [5]: Nc1ncnc2c1ncn2[C@@H]1O[C@H](COP(=O)(O)OP(=O)(O)OP(=O)(O)O)[C@@H](O)[C@H]1O
The mark [6] stands for this setting: direction with ATP as co-substrate.

By kcat is commonly meant the number of substrate molecules converted per active site and unit of time at saturation.

B1: Eno1p (Saccharomyces cerevisiae S288C) (protein)
chain: AVSKVYARSVYDSRGNPTVEVELTTEKGVFRSIVPSGASTGVHEALEMRDGDKSKWMGKGVLHAVKNVNDVIAPAFVKANIDVKDQKAVDDFLISLDGTANKSKLGANAILGVSLAASRAAAAEKNVPLYKHLADLSKSKTSPYVLPVPFLNVLNGGSHAGGALALQEFMIAPTGAKTFAEALRIGSEVYHNLKSLTKKRYGASAGNVGDEGGVAPNIQTAEEALDLIVDAIKAAGHDGKIKIGLDCASSEFFKDGKYDLDFKNPNSDKSKWLTGPQLADLYHSLMKRYPIVSIEDPFAEDDWEAWSHFFKTAGIQIVADDLTVTNPKRIATAIEKKAADALLLKVNQIGTLSESIKAAQDSFAAGWGVMVSHRSGETEDTFIADLVVGLRTGQIKTGAPARSERLAKLNQLLRIEEELGDNAVFAGENFHHGDKL
notes: tagged full-length ORF, expressed in and purified from S. cerevisiae, assayed immediately after purification
For the protein B1, in “purified protein [1]”, the Km is 0.043 (SEM 10%) mM and the kcat is 7.6 s⁻¹. For the same protein, in “purified protein [2]” (product PEP), the kcat was 5.07 s⁻¹.

B2: Tdh2p (Saccharomyces cerevisiae S288C) (protein)
chain: VRVAINGFGRIGRLVMRIALQRKNVEVVALNDPFISNDYSAYMFKYDSTHGRYAGEVSHDDKHIIVDGHKIATFQERDPANLPWASLNIDIAIDSTGVFKELDTAQKHIDAGAKKVVITAPSSTAPMFVMGVNEEKYTSDLKIVSNASCTTNCLAPLAKVINDAFGIEEGLMTTVHSMTATQKTVDGPSHKDWRGGRTASGNIIPSSTGAAKAVGKVLPELQGKLTGMAFRVPTVDVSVVDLTVKLNKETTYDEIKKVVKAAAEGKLKGVLGYTEDAVVSSDFLGDSNSSIFDAAAGIQLSPKFVKLVSWYDNEYGYSTRVVDLVEHVAKA
notes: tagged full-length ORF, expressed in and purified from S. cerevisiae
Turning to B2, in the series “purified protein [3]”, the Km turned out to be 0.77 mM and the kcat worked out at 8.63 s⁻¹.

B3: Pdc6p (Saccharomyces cerevisiae S288C) (protein)
chain: SEITLGKYLFERLKQVNVNTIFGLPGDFNLSLLDKIYEVDGLRWAGNANELNAAYAADGYARIKGLSVLVTTFGVGELSALNGIAGSYAEHVGVLHVVGVPSISAQAKQLLLHHTLGNGDFTVFHRMSANISETTSMITDIATAPSEIDRLIRTTFITQRPSYLGLPANLVDLKVPGSLLEKPIDLSLKPNDPEAEKEVIDTVLELIQNSKNPVILSDACASRHNVKKETQKLIDLTQFPAFVTPLGKGSIDEQHPRYGGVYVGTLSKQDVKQAVESADLILSVGALLSDFNTGSFSYSYKTKNVVEFHSDYVKVKNATFLGVQMKFALQNLLKVIPDVVKGYKSVPVPTKTPANKGVPASTPLKQEWLWNELSKFLQEGDVIISETGTSAFGINQTIFPKDAYGISQVLWGSIGFTTGATLGAAFAAEEIDPNKRVILFIGDGSLQLTVQEISTMIRWGLKPYLFVLNNDGYTIEKLIHGPHAEYNEIQTWDHLALLPAFGAKKYENHKIATTGEWDALTTDSEFQKNSVIRLIELKLPVFDAPESLIKQAQLTAATNAKQ
notes: tagged full-length ORF, expressed in and purified from S. cerevisiae, assayed freshly purified
For B3, in “purified protein [4]”, the Km is recorded as 2.92 mM and the kcat came out at 9.21 s⁻¹.

B4: Gpm1p (Saccharomyces cerevisiae S288C) (protein)
chain: PKLVLVRHGQSEWNEKNLFTGWVDVKLSAKGQQEAARAGELLKEKKVYPDVLYTSKLSRAIQTANIALEKADRLWIPVNRSWRLNERHYGDLQGKDKAETLKKFGEEKFNTYRRSFDVPPPPIDASSPFSQKGDERYKYVDPNVLPETESLALVIDRLLPYWQDVIAKDLLSGKTVMIAAHGNSLRGLVKHLEGISDADIAKLNIPTGIPLVFELDENLKPSKPSYYLDPEAAAAGAAAVANQGKK
notes: as for B2
Take B4: in the series “purified protein [1]” (reverse reaction (P2G to P3G)), the Km was 1.41 mM and the kcat is 400 s⁻¹.

B5: Pgk1p (Saccharomyces cerevisiae S288C) (protein)
chain: SLSSKLSVQDLDLKDKRVFIRVDFNVPLDGKKITSNQRIVAALPTIKYVLEHHPRYVVLASHLGRPNGERNEKYSLAPVAKELQSLLGKDVTFLNDCVGPEVEAAVKASAPGSVILLENLRYHIEEEGSRKVDGQKVKASKEDVQKFRHELSSLADVYINDAFGTAHRAHSSMVGFDLPQRAAGFLLEKELKYFGKALENPTRPFLAILGGAKVADKIQLIDNLLDKVDSIIIGGGMAFTFKKVLENTEIGDSIFDKAGAEIVPKLMEKAKAKGVEVVLPVDFIIADAFSADANTKTVTDKEGIPAGWQGLDNGPESRKLFAATVAKAKTIVWNGPPGVFEFEKFAAGTKALLDEVVKSSAAGNTVIIGGGDTATVAKKYGVTDKISHVSTGGGASLELLEGKELPGVAFLSEKK
notes: as for B2
As for B5, in “purified protein [2]” (setting [6]), the Km worked out at 4580 µM and the kcat amounted to 58.6 s⁻¹.

B6: Tdh1p (Saccharomyces cerevisiae S288C) (protein)
chain: MIRIAINGFGRIGRLVLRLALQRKDIEVVAVNDPFISNDYAAYMVKYDSTHGRYKGTVSHDDKHIIIDGVKIATYQERDPANLPWGSLKIDVAVDSTGVFKELDTAQKHIDAGAKKVVITAPSSSAPMFVVGVNHTKYTPDKKIVSNASCTTNCLAPLAKVINDAFGIEEGLMTTVHSMTATQKTVDGPSHKDWRGGRTASGNIIPSSTGAAKAVGKVLPELQGKLTGMAFRVPTVDVSVVDLTVKLEKEATYDQIKKAVKAAAEGPMKGVLGYTEDAVVSSDFLGDTHASIFDASAGIQLSPKFVKLISWYDNEYGYSARVVDLIEYVAKA
notes: as for B2
In the case of B6, in “purified protein [3]”, the Km is recorded as 0.495 (SEM 7.5%) mM and the catalytic constant (kcat) stood at 19.1 s⁻¹.

B7: Tdh3p (Saccharomyces cerevisiae S288C) (protein)
chain: VRVAINGFGRIGRLVMRIALSRPNVEVVALNDPFITNDYAAYMFKYDSTHGRYAGEVSHDDKHIIVDGKKIATYQERDPANLPWGSSNVDIAIDSTGVFKELDTAQKHIDAGAKKVVITAPSSTAPMFVMGVNEEKYTSDLKIVSNASCTTNCLAPLAKVINDAFGIEEGLMTTVHSLTATQKTVDGPSHKDWRGGRTASGNIIPSSTGAAKAVGKVLPELQGKLTGMAFRVPTVDVSVVDLTVKLNKETTYDEIKKVVKAAAEGKLKGVLGYTEDAVVSSDFLGDSHSSIFDASAGIQLSPKFVKLVSWYDNEYGYSTRVVDLVEHVAKA
notes: as for B2
As for B7, in “purified protein [3]”, the Km is listed as 0.423 (SEM 9.2%) mM and the kcat came to 18.2 s⁻¹.

B8: Glk1p (Saccharomyces cerevisiae S288C) (protein)
chain: SFDDLHKATERAVIQAVDQICDDFEVTPEKLDELTAYFIEQMEKGLAPPKEGHTLASDKGLPMIPAFVTGSPNGTERGVLLAADLGGTNFRICSVNLHGDHTFSMEQMKSKIPDDLLDDENVTSDDLFGFLARRTLAFMKKYHPDELAKGKDAKPMKLGFTFSYPVDQTSLNSGTLIRWTKGFRIADTVGKDVVQLYQEQLSAQGMPMIKVVALTNDTVGTYLSHCYTSDNTDSMTSGEISEPVIGCIFGTGTNGCYMEEINKITKLPQELRDKLIKEGKTHMIINVEWGSFDNELKHLPTTKYDVVIDQKLSTNPGFHLFEKRVSGMFLGEVLRNILVDLHSQGLLLQQYRSKEQLPRHLTTPFQLSSEVLSHIEIDDSTGLRETELSLLQSLRLPTTPTERVQIQKLVRAISRRSAYLAAVPLAAILIKTNALNKRYHGEVEIGCDGSVVEYYPGFRSMLRHALALSPLGAEGERKVHLKIAKDGSGVGAALCALVA
notes: tagged full-length ORF (mostly C-terminal tag, yeast ORF/GST/TAP collections), expressed in and purified from S. cerevisiae
With B8, in the series “purified protein [5]”, the Km amounted to 865 µM and the kcat was found to be 0.0721 s⁻¹.

B9: Pdc1p (Saccharomyces cerevisiae S288C) (protein)
chain: SEITLGKYLFERLKQVNVNTVFGLPGDFNLSLLDKIYEVEGMRWAGNANELNAAYAADGYARIKGMSCIITTFGVGELSALNGIAGSYAEHVGVLHVVGVPSISAQAKQLLLHHTLGNGDFTVFHRMSANISETTAMITDIATAPAEIDRCIRTTYVTQRPVYLGLPANLVDLNVPAKLLQTPIDMSLKPNDAESEKEVIDTILALVKDAKNPVILADACCSRHDVKAETKKLIDLTQFPAFVTPMGKGSIDEQHPRYGGVYVGTLSKPEVKEAVESADLILSVGALLSDFNTGSFSYSYKTKNIVEFHSDHMKIRNATFPGVQMKFVLQKLLTTIADAAKGYKPVAVPARTPANAAVPASTPLKQEWMWNQLGNFLQEGDVVIAETGTSAFGINQTTFPNNTYGISQVLWGSIGFTTGATLGAAFAAEEIDPKKRVILFIGDGSLQLTVQEISTMIRWGLKPYLFVLNNDGYTIEKLIHGPKAQYNEIQGWDHLSLLPTFGAKDYETHRVATTGEWDKLTQDKSFNDNSKIRMIEIMLPVFDAPQNLVEQAKLTAATNAKQ
notes: as for B3
As to B9, in the series “purified protein [4]”, the Km is 8.5 (SEM 10%) mM and the kcat came out at 12.1 s⁻¹.

B10: Pdc5p (Saccharomyces cerevisiae S288C) (protein)
chain: MSEITLGKYLFERLSQVNCNTVFGLPGDFNLSLLDKLYEVKGMRWAGNANELNAAYAADGYARIKGMSCIITTFGVGELSALNGIAGSYAEHVGVLHVVGVPSISSQAKQLLLHHTLGNGDFTVFHRMSANISETTAMITDIANAPAEIDRCIRTTYTTQRPVYLGLPANLVDLNVPAKLLETPIDLSLKPNDAEAEAEVVRTVVELIKDAKNPVILADACASRHDVKAETKKLMDLTQFPVYVTPMGKGAIDEQHPRYGGVYVGTLSRPEVKKAVESADLILSIGALLSDFNTGSFSYSYKTKNIVEFHSDHIKIRNATFPGVQMKFALQKLLDAIPEVVKDYKPVAVPARVPITKSTPANTPMKQEWMWNHLGNFLREGDIVIAETGTSAFGINQTTFPTDVYAIVQVLWGSIGFTVGALLGATMAAEELDPKKRVILFIGDGSLQLTVQEISTMIRWGLKPYIFVLNNNGYTIEKLIHGPHAEYNEIQGWDHLALLPTFGARNYETHRVATTGEWEKLTQDKDFQDNSKIRMIEVMLPVFDAPQNLVKQAQLTAATNAKQ
notes: as for B3
As for B10, in “purified protein [4]”, the Km is 7.08 (SEM 5.7%) mM and the catalytic constant (kcat) was 10.3 s⁻¹.

B11: Eno2p (Saccharomyces cerevisiae S288C) (protein)
chain: MAVSKVYARSVYDSRGNPTVEVELTTEKGVFRSIVPSGASTGVHEALEMRDEDKSKWMGKGVMNAVNNVNNVIAAAFVKANLDVKDQKAVDDFLLSLDGTANKSKLGANAILGVSMAAARAAAAEKNVPLYQHLADLSKSKTSPYVLPVPFLNVLNGGSHAGGALALQEFMIAPTGAKTFAEAMRIGSEVYHNLKSLTKKRYGASAGNVGDEGGVAPNIQTAEEALDLIVDAIKAAGHDGKVKIGLDCASSEFFKDGKYDLDFKNPESDKSKWLTGVELADMYHSLMKRYPIVSIEDPFAEDDWEAWSHFFKTAGIQIVADDLTVTNPARIATAIEKKAADALLLKVNQIGTLSESIKAAQDSFAANWGVMVSHRSGETEDTFIADLVVGLRTGQIKTGAPARSERLAKLNQLLRIEEELGDKAVYAGENFHHGDKL
notes: N-terminally tagged full-length ORF, expressed in and purified from S. cerevisiae, assayed fresh
Turning to B11, in the series “purified protein [1]”, the Km turned out to be 0.104 mM and the kcat was found to be 19.9 s⁻¹.

The record behind these values is publication PMC3764422, “A model of yeast glycolysis based on a consistent kinetic characterisation of all its enzymes” (Febs Letters, 2013).
